Measured values from patent US20250333467A1 (TECTONIC OPERATING, published 2025).
Changes are numbered by the printed parent chain. Blank lines part the entries; values can stand above or below the binder they belong to.

What was measured:
Assay in all cases: cell-based or functional assay
human RXFP1 [1] = molecular target: T1, human RXFP1 (human, UniProt Q9HBX9 1-757)
T1 sequence (looked up): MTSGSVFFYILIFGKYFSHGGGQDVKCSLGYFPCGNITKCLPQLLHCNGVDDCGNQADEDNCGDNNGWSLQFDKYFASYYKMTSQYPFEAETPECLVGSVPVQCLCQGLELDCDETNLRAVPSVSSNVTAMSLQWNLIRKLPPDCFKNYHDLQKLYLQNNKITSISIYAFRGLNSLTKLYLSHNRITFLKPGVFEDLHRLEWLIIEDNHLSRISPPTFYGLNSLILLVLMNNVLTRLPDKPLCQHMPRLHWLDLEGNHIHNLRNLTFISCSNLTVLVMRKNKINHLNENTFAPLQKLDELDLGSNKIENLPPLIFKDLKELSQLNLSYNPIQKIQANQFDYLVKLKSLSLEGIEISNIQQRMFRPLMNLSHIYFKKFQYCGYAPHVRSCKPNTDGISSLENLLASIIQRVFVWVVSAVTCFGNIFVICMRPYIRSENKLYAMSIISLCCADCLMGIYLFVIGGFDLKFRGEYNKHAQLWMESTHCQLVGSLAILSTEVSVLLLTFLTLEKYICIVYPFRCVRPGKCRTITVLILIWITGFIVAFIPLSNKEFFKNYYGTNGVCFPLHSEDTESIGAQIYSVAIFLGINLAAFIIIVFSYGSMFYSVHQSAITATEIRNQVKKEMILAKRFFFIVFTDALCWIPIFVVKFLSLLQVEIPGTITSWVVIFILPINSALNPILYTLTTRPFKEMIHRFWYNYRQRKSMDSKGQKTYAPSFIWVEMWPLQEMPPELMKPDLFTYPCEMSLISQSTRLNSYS

human RXFP1 [2] = molecular target: T1, human RXFP1; remark: listed apart in the source
rat RXFP1 [3] = molecular target: T2, rat RXFP1 (rat, UniProt Q6R6I6 1-758)
T2 sequence (looked up): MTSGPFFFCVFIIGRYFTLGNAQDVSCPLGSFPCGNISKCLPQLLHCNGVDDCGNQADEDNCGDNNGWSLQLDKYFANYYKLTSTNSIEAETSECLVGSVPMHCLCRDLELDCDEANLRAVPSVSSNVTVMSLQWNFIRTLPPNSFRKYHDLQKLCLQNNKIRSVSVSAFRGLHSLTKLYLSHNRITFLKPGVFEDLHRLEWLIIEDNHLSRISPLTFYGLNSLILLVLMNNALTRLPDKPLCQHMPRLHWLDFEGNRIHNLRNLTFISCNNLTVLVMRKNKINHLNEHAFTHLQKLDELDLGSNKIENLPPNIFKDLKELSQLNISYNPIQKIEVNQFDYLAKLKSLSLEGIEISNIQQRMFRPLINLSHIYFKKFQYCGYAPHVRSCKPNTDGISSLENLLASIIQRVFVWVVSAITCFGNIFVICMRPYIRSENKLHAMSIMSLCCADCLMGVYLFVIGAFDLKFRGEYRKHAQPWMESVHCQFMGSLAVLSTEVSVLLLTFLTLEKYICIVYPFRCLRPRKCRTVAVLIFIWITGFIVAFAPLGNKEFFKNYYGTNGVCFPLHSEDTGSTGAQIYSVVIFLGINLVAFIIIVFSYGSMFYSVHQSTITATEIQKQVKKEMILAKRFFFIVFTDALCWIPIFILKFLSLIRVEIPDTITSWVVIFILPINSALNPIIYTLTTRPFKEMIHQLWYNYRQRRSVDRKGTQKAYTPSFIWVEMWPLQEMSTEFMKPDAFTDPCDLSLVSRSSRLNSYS

human RXFP1 [4] = molecular target: T1, human RXFP1; remark: listed apart in the source
rat RXFP1 [5] = molecular target: T2, rat RXFP1; remark: listed apart in the source

B1: SEQ ID NO: 317 (Fc fusion)
chain: DKTHTCPPCPAPEAAGGPSVFLFPPKPKDTLMISRTPEVTCVVVDVSHEDPEVKFNWYVDGVEVHNAKTKPREEQYNSTYRVVSVLTVLHQDWLNGKEYKCKVSNKALAAPIEKTISKAKGQPREPQVYTLPPSRDELTKNQVSLTCLVKGFYPSDIAVEWESNGQPENNYKTTPPVLDSDGSFFLYSKLTVDKSRWQQGNVFSCSVLHEALHSHYTQKSLSLSPGGGSDSWQEEVIKLCGRELVRAQIAICGKSTGGGEGGGEGGGEGRQLYSALANKCCHVGCTKRSLAQFC
- Potency (cAMP, transient hRXFP1 in HEK293) (human RXFP1 [1]): 8 nM
- THP1 (endogenous RXFP1) cAMP EC50 (human RXFP1 [2]): 63 nM
- Transient HEK293 hRXFP1 cAMP EC50 (human RXFP1 [2]): 38.2 nM
- Transient HEK293 rRXFP1 cAMP EC50 (rat RXFP1 [3]): 31.2 nM

B3: SEQ ID NO: 98 (Fc fusion)
chain: DKTHTCPPCPAPEAAGGPSVFLFPPKPKDTLMISRTPEVTCVVVDVSHEDPEVKFNWYVDGVEVHNAKTKPREEQYNSTYRVVSVLTVLHQDWLNGKEYKCKVSNKALAAPIEKTISKAKGQPREPQVYTLPPSRDELTKNQVSLTCLVKGFYPSDIAVEWESNGQPENNYKTTPPVLDSDGSFFLYSKLTVDKSRWQQGNVFSCSVLHEALHSHYTQKSLSLSPGEGGSDSWQEEVIKLCGRELVRAQIAICGQSTASDAAGADANAGARQLYSALANKCCHVGCTKRSLAQFC
- Potency (cAMP, transient hRXFP1 in HEK293) (human RXFP1 [1]): 8.8 nM
- THP1 (endogenous RXFP1) cAMP EC50 (human RXFP1 [2]): 100 nM
- Transient HEK293 hRXFP1 cAMP EC50 (human RXFP1 [2]): 21.5 nM
- Transient HEK293 rRXFP1 cAMP EC50 (rat RXFP1 [3]): 29.1 nM

B4: SEQ ID NO: 86 (Fc fusion)
chain: B3 chain with E227K, Q255K, N267D
- Potency (cAMP, transient hRXFP1 in HEK293) (human RXFP1 [1]): 4 nM
- THP1 (endogenous RXFP1) cAMP EC50 (human RXFP1 [2]): 30 nM
- Transient HEK293 hRXFP1 cAMP EC50 (human RXFP1 [2]): 7.46 nM
- Transient HEK293 rRXFP1 cAMP EC50 (rat RXFP1 [3]): 24.5 nM

Next, values leading:

- EC50 for cAMP generation, recombinant human RXFP1 assay (average) (human RXFP1 [4]): 0.2 nM
- EC50 for cAMP generation, recombinant rat RXFP1 assay (average) (rat RXFP1 [5]): 1 nM
- Potency (cAMP, transient hRXFP1 in HEK293) (human RXFP1 [1]): 0.2 nM
- THP1 (endogenous RXFP1) cAMP EC50 (human RXFP1 [2]): 2 nM
- Transient HEK293 hRXFP1 cAMP EC50 (human RXFP1 [2]): 0.19 nM
- Transient HEK293 rRXFP1 cAMP EC50 (rat RXFP1 [3]): 1.15 nM
B2: SEQ ID NO: 496 (Fc fusion)
chain: B3 chain with E227K, Q234K, Q255K, D265N, Q293R

- Potency (cAMP, transient hRXFP1 in HEK293) (human RXFP1 [1]): 10.1 nM
- THP1 (endogenous RXFP1) cAMP EC50 (human RXFP1 [2]): 200 nM
- Transient HEK293 hRXFP1 cAMP EC50 (human RXFP1 [2]): 25 nM
- Transient HEK293 rRXFP1 cAMP EC50 (rat RXFP1 [3]): 20.3 nM
B5: SEQ ID NO: 118 (Fc fusion)
chain: B3 chain with D265Q, N267Q, R289Q

- Potency (cAMP, transient hRXFP1 in HEK293) (human RXFP1 [1]): 3.5 nM
- THP1 (endogenous RXFP1) cAMP EC50 (human RXFP1 [2]): 80 nM
- Transient HEK293 hRXFP1 cAMP EC50 (human RXFP1 [2]): 5.94 nM
- Transient HEK293 rRXFP1 cAMP EC50 (rat RXFP1 [3]): 6.74 nM
B6: SEQ ID NO: 111 (Fc fusion)
chain: B3 chain with Q255K, D265Q, N267Q, R289Q
